Paper PMC9468158, “Transmembrane helices mediate the formation of a stable ternary complex of b5R, cyt b5, and SCD1” (Communications Biology, 2022)

Experiments:
[1] = target: T1, SCD1, released from the linker-cleaved SCD1-cyt b5 fusions (mouse, UniProt P13516 1-355); test: SEC; binary fusion protein purified, linker cleaved by TEV protease, Superdex 200 10/300 GL in 20 mM HEPES pH 7.5, 150 mM NaCl, 1 mM DDM; elution compared with the tethered fusion; conditions: both partners purified
T1 construct: stearoyl-CoA desaturase-1 (SCD1), mouse, UniProt P13516; stands for the SCD1 chain of the fusion with full-length cyt b5 (wild type and TM mutants) and of the fusion with the soluble domain of cyt b5; the GFP tag stood at the C-terminus of the fusion; surmised: ENLYFQ is left at the C-terminus after cleavage
T1 sequence (looked up): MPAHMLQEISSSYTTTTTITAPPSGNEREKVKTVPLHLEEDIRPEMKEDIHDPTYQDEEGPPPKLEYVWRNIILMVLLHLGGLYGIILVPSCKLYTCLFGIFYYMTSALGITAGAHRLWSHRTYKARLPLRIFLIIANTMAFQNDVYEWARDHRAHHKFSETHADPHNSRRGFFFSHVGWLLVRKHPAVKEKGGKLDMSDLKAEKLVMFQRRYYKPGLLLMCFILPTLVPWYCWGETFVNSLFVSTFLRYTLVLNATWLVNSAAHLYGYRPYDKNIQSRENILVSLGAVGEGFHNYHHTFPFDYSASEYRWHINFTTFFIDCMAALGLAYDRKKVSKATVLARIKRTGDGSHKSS

[2] = target: T2, SCD1, released from the linker-cleaved SCD1-cyt b5-b5R fusions (mouse, UniProt P13516 1-355); test: SEC; ternary fusion SCD1-cyt b5-b5R purified, linkers cleaved by TEV protease, Superdex 200 10/300 GL in 20 mM HEPES pH 7.5, 150 mM NaCl, 1 mM DDM; three proteins in the sample; conditions: both partners purified
T2 construct: stearoyl-CoA desaturase-1 (SCD1), mouse, UniProt P13516; stands for the SCD1 chain of the ternary fusion of the full-length proteins and of the sample with soluble cyt b5 and b5R; surmised: linker residues are left after TEV cleavage; not shown: GFP, N-terminal, cleaved
T2 sequence (looked up): T1 sequence (looked up)

B1: full-length cyt b5, released from the linker-cleaved SCD1-cyt b5 fusion (natural protein, mouse, UniProt P56395 1-134, looked up)
chain: MAGQSDKDVKYYTLEEIQKHKDSKSTWVILHHKVYDLTKFLEEHPGGEEVLREQAGGDATENFEDVGHSTDARELSKTYIIGELHPDDRSKIAKPSDTLITTVESNSSWWTNWVIPAISALAVALMYRLYMAED
notes: cytochrome b5, mouse, UniProt P56395; surmised: G at the N-terminus and ENLYFQ at the C-terminus are left after TEV cleavage; not shown: GFP, C-terminal, cleaved
binding result [1]: binds

B2: full-length cyt b5, released from the linker-cleaved SCD1-cyt b5-b5R fusion (natural protein, mouse, UniProt P56395 1-134, looked up)
chain: B1 chain
notes: cytochrome b5, mouse, UniProt P56395; surmised: linker residues are left after TEV cleavage
binding result [2]: binds
